Assay results taken from US12358959B2, “Compositions and methods for oligodendrocyte development” (CHILDREN'S MEDICAL CENTER CORPORATION, priority 2016, dated 2025).

Target: T1, GPR56 (Mus musculus, UniProt Q8K209)
T1 construct: expressed in transfected cells; host or cells: HEK 293T
Assay: TG2 activation assay: GPR56 NTF released into supernatant of HEK 293T cells (Western blot)
Type: cell-based
Details: 10 min, HEK 293T transfected with mouse Gpr56
Description: HEK 293T cells were transiently transfected with mouse Gpr56 cDNA. Twenty-four hours after transfection, the cells were subject to serum starvation for 36 hr followed by the addition of recombinant TG2 250 nM with/without recombinant laminin-111 12.5 nM, or acetic acid as control for 10 min. The conditioned media were harvested, filtered, and concentrated as previously described. Equal volumes of the concentrated media were used for Western blot (Luo et al., PLOS One 9, e100043, 2014), while the cell pellets were used for GTP-Rho pull-down assay.

T1 sequence (Q8K209 26-687): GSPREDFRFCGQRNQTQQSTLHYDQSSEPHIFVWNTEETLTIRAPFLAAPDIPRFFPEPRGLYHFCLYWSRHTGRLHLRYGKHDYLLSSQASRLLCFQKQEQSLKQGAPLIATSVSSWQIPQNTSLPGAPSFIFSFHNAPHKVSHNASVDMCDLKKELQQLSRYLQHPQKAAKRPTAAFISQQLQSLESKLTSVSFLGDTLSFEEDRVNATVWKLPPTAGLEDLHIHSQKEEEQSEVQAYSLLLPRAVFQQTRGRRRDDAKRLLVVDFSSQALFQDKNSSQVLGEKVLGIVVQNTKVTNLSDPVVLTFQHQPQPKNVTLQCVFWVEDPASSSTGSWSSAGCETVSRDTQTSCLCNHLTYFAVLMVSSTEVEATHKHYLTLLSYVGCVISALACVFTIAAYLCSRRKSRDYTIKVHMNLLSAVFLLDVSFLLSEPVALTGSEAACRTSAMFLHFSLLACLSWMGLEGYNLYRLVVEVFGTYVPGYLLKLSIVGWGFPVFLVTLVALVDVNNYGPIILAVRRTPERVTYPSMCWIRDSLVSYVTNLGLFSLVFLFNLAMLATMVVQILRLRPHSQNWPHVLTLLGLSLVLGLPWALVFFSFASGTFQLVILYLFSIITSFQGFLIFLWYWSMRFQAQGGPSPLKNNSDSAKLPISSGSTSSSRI

Transglutaminase 2 [TG2]
Released GPR56 NTF in supernatant (TG2 250 nM alone vs control): n.s. | Released GPR56 NTF in supernatant (TG2 250 nM with laminin-111 12.5 nM): removed the GPR56 NTF
